Patent US11957762B2, “Immune tolerant and non-immune tolerant elastin-like recombinant peptides and methods of use” (University of Utah Research Foundation, priority 2015, dated 2024)
Several values for one entry are separate records, joined by “and”; a condition that tells them apart may be missing. Identical values can stand only once.

Columns and labels:
B3Z cells = experiment: B3Z CD8+ T cell hybridoma activation assay; type: cell-based; conditions: DC2.4 cells pre-incubated with antigen
Description: B3Z CD8+ T cell hybridoma activation assay. B3Z cells (a gift from N. Shastri) are a CD8+ T-cell hybridoma engineered to secrete β-galactosidase when their T-cell receptors are engaged with an […]:H2K^b complex.^(33) To do this assay, 1×10^5 DC2.4 cells/well were set in 96-well plates. OVA, […] peptide (SEQ ID NO: 22), and iTEP-pOVA NP (SEQ ID NO: 56) at indicated concentrations were loaded into the cell culture for 16 hours and then washed away. 1×10^5 B3Z cells/well were added to the DC2.4 cell culture and co-cultured with DC2.4 cells for 24 hours. The cells were washed with PBS before 100 μL of lysis buffer (PBS with 100 mM 2-mercaptoethanol, 9 mM MgCl2, 0.125% NP-40) together with 0.15 mM chlorophenol red β-galactoside were added into the wells. After the plates were incubated at 37° C. for 4 hours, the reaction was stopped with 50 μL/well of 15 mM EDTA and 300 mM glycine. The OD at 570 nm was measured and the OD at 630 nm was used as reference. The OD was used as an indicator as activation status of B3Z cells.
Activation of B3Z hybridoma (CD8+T) cells. This assay was done with a protocol described previously (Cho et al., J Drug Target, 2015; p 1-12).

C57BL/6 mice = experiment: In vivo CTL response by ELISPOT IFN-γ assay; design: species or system mouse; conditions: subcutaneous immunization twice, 2 nmol SIINFEKL equivalents per mouse with IFA
Source text: in vivo CTL response by ELISPOT IFN-γ assay. C57BL/6 mice were immunized subcutaneously with each immunogen (2 nmol […] equivalents per mouse) together with incomplete Freunds Adjuvants (IFA; Sigma, USA) at their left flanks. The immunization was repeated at their right flanks 1 week later. At 10 days after the second immunization, mice were sacrificed, and the spleens were harvested. The spleens of the sacrificed mice were teased into single-cell suspensions and filtered through nylon mesh […]. Red blood cells were lysed by Ammonium-Chloride-Potassium (ACK) lysing buffer. The washed and resuspended single cells were counted using Contess™ Automated Cell Counter (Invitrogen, USA). Splenocytes (8×10^6/mL) were incubated in RPMI-1640 medium supplemented with 10% heat inactivated fetal calf serum, 2 mM glutamine, 100 units/mL penicillin and 100 μg/mL streptomycin (Invitrogen, USA), in a 14 mL polypropylene tissue culture tube for 48 hours, with or without […] peptide (SEQ ID NO: 22) (2.5 μg/mL). The cells were then washed and recounted. 2×10^5 live cells in 100 μL medium were then loaded into wells of 96-well Filtration plates (Millipore, USA) coated with […] of capture anti-mouse IFN-γ mAb (Clone: R4-6A2, Biolegend, USA). Triplicates were set up for each condition. Cells were discarded after 24 hours of culture and the wells were incubated with […] of detectionbiotinylated, anti-mouse IFN-γ mAb overnight (Clone: XMG1.2-Biotin, Biolegend, USA). After the unbound antibodies were washed away from the wells, the bound antibodies were detected using horseradish peroxidase (HRP Avidin, Biolegend, USA) together with 3-amino-9-ethyl-carbazole (AEC) substrate (Sigma, USA). The membranes on the bottom of the wells were peeled off, and color spots on the membrane were scanned. The spots were automatically counted using ImageJ software.
Animal immunization. C57BL/6 mice were immunized by the subcutaneous injection of 2 nmol iTEP NP vaccines and incomplete Freunds Adjuvants (IFA; Sigma, USA) at their left flanks. Immunization was repeated at their right flanks after 1 week. On day 10 after the second immunization, mice were sacrificed, and the spleens were harvested.

DC2.4 cells = experiment: Presentation of the CTL epitope […] by DCs (flow cytometry); type: cell-based, murine; conditions: 16 h incubation with DC2.4 cells
Description: Presentation of the CTL epitope, […], by DCs. Cells of a murine DC line (DC2.4, a gift from K. Rock)^(32) were plated at 2.5×10^5/500 μL/well in 24-well plates. 500 μL of OVA, […] peptide (SEQ ID NO: 22), or iTEPB-iTEPA-pOVA NP (SEQ ID NO: 56) (iTEP-pOVA NP hereafter) were dissolved in cell culture media and added to the wells containing DCs. The cells were further cultured for 16 hrs. at 37° C. with 5% CO2 before they were collected and washed with PBS. The MHC class I complex, H-2kb/[…] presented on DC surface was stained with a PE-tagged monoclonal antibody 25-D1.16 (Biolegend, 1:100 dilution) and quantified with flow cytometry (5×10^4 events collected per sample). The data are presented as MFI normalized to the MFI of untreated DC2.4 cells.
Presentation of […] epitope vaccine by DCs. The presentation was studied as previously described (Cho et al., J Drug Target, 2015; p 1-12). The concentration of iTEP-vaccine fusions (NPs) used in this experiment was 5 μM. The results of presentation were shown as mean fluorescence intensity (MFI) of 5000 treated, live cells in a given treatment, which were normalized to the MFI value of untreated DC2.4 cells.

[1] = Thermally-induced reversible phase transition (turbidity OD350 vs temperature); type: physicochemical; conditions: for Tt (cooling) / Tt (heating): 25 μM in H2O
Source text: Characterization of thermally-induced, reversible, inverse phase transition of iTEPs and the iTEPB-iTEPA-pOVA fusion. The phase transitions of iTEP or iTEP fusions were characterized by turbidity changes of sample solutions as a function of temperature. Specifically, the optical density at 350 nm (OD350) of a sample solution was monitored using an UV-visible spectrophotometer equipped with a multi-cell thermoelectric temperature controller (Cary 300, Varian Instruments, Walnut Creek, CA) while the solution was heated from 20° C. to 80° C. and then cooled to 20° C. at a rate of 1° C./min. The maximum first derivative of the turbidity curve of a sample was identified. The transition temperature (Tt) of the sample is the temperature that corresponds to the maximum derivative.

[2] = Hydrodynamic diameter by dynamic light scattering (DLS); type: physicochemical
Description: Characterization of the size of iTEPB-pOVA and iTEPB-iTEPA-pOVA fusions. The particle size distribution of the iTEP fusions was determined by dynamic light scattering (DLS) using a Zetasizer Nano-ZS instrument (Malvern Instruments, Malvern, UK) as previously described.^(29) The fusions were prepared at 5 μM and 25 μM in PBS and equilibrated at 37° C. for the measurement. The reported results represented the average particle size by number.
Dynamic light scattering (DLS) measurement. The measurement was carried out as previously described. iTEP, iTEP-MPBH-ABA-Sali conjugate, or PTX NP were measured at 25 μM in PBS at 37° C. using a Malvern Zetasizer Nano system (Malvern, Chester County, PA, USA).
Characterization of hydrodynamic diameters of iTEP-vaccine fusions. Hydrodynamic diameters of iTEP-vaccine fusions were determined by dynamic light scattering (DLS) using a Zetasizer Nano-ZS instrument (Malvern Instruments, Malvern, UK) as previously described (Zhao et al., Mol Pharm, 2014; 11(8):2703-12). The samples were resuspended at concentrations of 5, 25, 50, and 100 μM in PBS and sat at room temperature overnight before measurement. Some samples were kept in 5% C02 at 37° C. for 16 h before DLS measurement. Hydrodynamic diameter results of the sample of 5 μM concentration were reported because they were not affected by the used sample concentrations. Hydrodynamic diameters were presented using the size-by-number distribution approach. Z-average values and sizes-by-intensity data, however, were also reported.

Question: With SIINFEKL [reference compound] as the molecule, how does the “activation of B3Z cells” value (B3Z cells) read?
Answer: The value was “highest activity among all treatments”.

Question: What about the “SIINFEKL-restricted activated splenocytes (INF-γ ELISPOT)” value (C57BL/6 mice) of the same molecule?
Answer: Its value is 60 spots per million seeded splenocytes.

Question: What about the “presentation of SIINFEKL by DCs” value (DC2.4 cells) of the same molecule?
Answer: Its value is “much stronger”.

Question: Which “Relative Hydrophobicity” value [1] does the source give for G(VPGLGAGAG)96GG [iTEPD] here?
Answer: The value was “High”.

Question: And the “(heating) Tt” value ([1]; 5 μM)?
Answer: The value was 42.3 °C.

Question: And the “Tt (cooling)” value [1]?
Answer: Its value is 35.20 ± 0.57 °C.

Question: And the “Tt (heating)” value [1]?
Answer: The value was 38.6 °C and 38.60 ± 1.20 °C.

B1: iTEPB-pOVA: a fusion of the hydrophilic iTEPB and the vaccine, soluble (SEQ ID NO: 57) (protein)
chain: GAGVPGGAGVPGGAGVPGGAGVPGGAGVPGGAGVPGGAGVPGGAGVPGGAGVPGGAGVPGGAGVPGGAGVPGGAGVPGGAGVPGGAGVPGGAGVPGGAGVPGGAGVPGGAGVPGGAGVPGGAGVPGGAGVPGGAGVPGGAGVPGGAGVPGGAGVPGGAGVPGGAGVPGGAGVPGGAGVPGGAGVPGGAGVPGGAGVPGGAGVPGGAGVPGGAGVPGGAGVPGGAGVPGGAGVPGGAGVPGGAGVPGGAGVPGGAGVPGGAGVPGGAGVPGGAGVPGGAGVPGGAGVPGGAGVPGGAGVPGGAGVPGGAGVPGGAGVPGGAGVPGGAGVPGGAGVPGGAGVPGGAGVPGGAGVPGGAGVPGGAGVPGGAGVPGGAGVPGGAGVPGGAGVPGGAGVPGGAGVPGGAGVPGGAGVPGGAGVPGCGGGGGGGGCGGGGGGGGCGGGGGGGGCGGGGGGGGCGGGGGGGGCGGGGGGGGCGGGGGGGGCGGGGGGGG
Question: With B1 as the molecule, how does the “mean diameter / size (DLS)” value ([2]; 25 μM in PBS, 37° C., by number) read?
Answer: Its value is “less than 10 nm”.

B2: ovalbumin (protein)
chain: GSIGAASMEFCFDVFKELKVHHANENIFYCPIAIMSALAMVYLGAKDSTRTQINKVVRFDKLPGFGDSIEAQCGTSVNVHSSLRDILNQITKPNDVYSFSLASRLYAEERYPILPEYLQCVKELYRGGLEPINFQTAADQARELINSWVESQTNGIIRNVLQPSSVDSQTAMVLVNAIVFKGLWEKAFKDEDTQAMPFRVTEQESKPVQMMYQIGLFRVASMASEKMKILELPFASGTMSMLVLLPDEVSGLEQLESIINFEKLTEWTSSNVMEERKIKVYLPRMKMEEKYNLTSVLMAMGITDVFSSSANLSGISSAESLKISQAVHAAHAEINEAGREVVGSAEAGVDAASVSEEFRADHPFLFCIKHIATNAVLFFGRCVSP
notes: positive control protein antigen
Question: For B2, which “SIINFEKL-restricted activated splenocytes (INF-γ ELISPOT)” value (C57BL/6 mice) is on record?
Answer: Its value is 61 spots per million seeded splenocytes.

B3: G(GVLPGVG)28GG (protein)
chain: GGAGVPGGAGVPGGAGVPGGAGVPGGAGVPGGAGVPGGAGVPGGAGVPGGAGVPGGAGVPGGAGVPGGAGVPGGAGVPGGAGVPGGAGVPGGAGVPGGAGVPGGAGVPGGAGVPGGAGVPGGAGVPGGAGVPGGAGVPGGAGVPGGAGVPGGAGVPGGAGVPGGAGVPGGAGVPGGAGVPGGAGVPGGAGVPGGAGVPGGAGVPGGAGVPGGAGVPGGAGVPGGAGVPGGAGVPGGAGVPGGAGVPGGAGVPGGAGVPGGAGVPGGAGVPGGAGVPGGAGVPGGAGVPGGAGVPGGAGVPGGAGVPGGAGVPGGAGVPGGAGVPGGAGVPGGAGVPGGAGVPGGAGVPGGAGVPGGAGVPGGAGVPGGAGVPGGAGVPGGAGVPGGAGVPGGAGVPGGAGVPGGAGVPGGAGVPGGAGVPGGG
Question: For B3, which “Relative Hydrophobicity” value [1] is on record?
Answer: Its value is “High”.

Question: And the “Tt (cooling)” value [1]?
Answer: The value was 29.70 ± 0.05 °C.

Question: And the “Tt (heating)” value [1]?
Answer: Its value is 33.30 ± 0.09 °C.

B4: NH2-(GAGVPG)70-(…)8-COOH (protein)
chain: GGAGVPGGAGVPGGAGVPGGAGVPGGAGVPGGAGVPGGAGVPGGAGVPGGAGVPGGAGVPGGAGVPGGAGVPGGAGVPGGAGVPGGAGVPGGAGVPGGAGVPGGAGVPGGAGVPGGAGVPGGAGVPGGAGVPGGAGVPGGAGVPGGAGVPGGAGVPGGAGVPGGAGVPGGAGVPGGAGVPGGAGVPGGAGVPGGAGVPGGAGVPGGAGVPGGAGVPGGAGVPGGAGVPGGAGVPGGAGVPGGAGVPGGAGVPGGAGVPGGAGVPGGAGVPGGAGVPGGAGVPGGAGVPGGAGVPGGAGVPGGAGVPGGAGVPGGAGVPGGAGVPGGAGVPGGAGVPGGAGVPGGAGVPGGAGVPGGAGVPGGAGVPGGAGVPGGAGVPGGAGVPGGAGVPGGAGVPGGAGVPGGAGVPGGAGVPGGAGVPGGGVLPGVGGVLPGVGGVLPGVGGVLPGVGGVLPGVGGVLPGVGGVLPGVGGVLPGVGGVLPGVGGVLPGVGGVLPGVGGVLPGVGGVLPGVGGVLPGVGGVLPGVGGVLPGVGGVLPGVGGVLPGVGGVLPGVGGVLPGVGGVLPGVGGVLPGVGGVLPGVGGVLPGVGGVLPGVGGVLPGVGGVLPGVGGVLPGVGGVLPGVGGVLPGVGGVLPGVGGVLPGVGGVLPGVGGVLPGVGGVLPGVGGVLPGVGGVLPGVGGVLPGVGGVLPGVGGVLPGVGGVLPGVGGVLPGVGGVLPGVGGVLPGVGGVLPGVGGVLPGVGGVLPGVGGVLPGVGGVLPGVGGVLPGVGGVLPGVGGVLPGVGGVLPGVGGVLPGVGGVLPGVGGVLPGVGG
Question: For B4, which “hydrodynamic diameter (DLS)” value ([2]; 25 μM in PBS at 37° C.) is on record?
Answer: Its value is 6.63±1.25 nm.

B5: G(GAGVPG)70GG (protein)
chain: GVPGFGAGAGVPGFGAGAGVPGFGAGAGVPGFGAGAGVPGFGAGAGVPGFGAGAGVPGFGAGAGVPGFGAGAGVPGFGAGAGVPGFGAGAGVPGFGAGAGVPGFGAGAGVPGFGAGAGVPGFGAGAGVPGFGAGAGVPGFGAGAGVPGFGAGAGVPGFGAGAGVPGFGAGAGVPGFGAGAGVPGFGAGAGGG
Question: Which “Relative Hydrophobicity” value [1] does the source give for B5 here?
Answer: Its value is “Low”.

Question: And the “temperature of coacervate formation” value ([1]; in H2O, tested temperature range 20-80° C.)?
Answer: Its value is “did not form coacervates”.
